Test results published in publication PMC6163455, “β-Lactamase Tools for Establishing Cell Internalization and Cytosolic Delivery of Cell Penetrating Peptides” (Biomolecules, 2018).

B1: 0167_SpyT (peptide)
peptide: PSSTPATNVARPRLNPIRGHKFALAVPNSRTRGASAHIVMVDAYKPTKG
notes: phylomer CPP 0167, discovered from phylomer peptide libraries; source: synthetic peptide (Pepscan or Mimotopes)
B2: 1746c27_SpyT (peptide)
peptide: KKKKQPPKPKKPKTQEKKKKQPPKPKRGASAHIVMVDAYKPTKG
notes: phylomer CPP 1746c27, discovered from phylomer peptide libraries; source: synthetic peptide (Pepscan or Mimotopes)
B3: 1746_SpyT (peptide)
peptide: PLKPKKPKTQEKKKKQPPKPKKPKTQEKKKKQPPKPKRGASAHIVMVDAYKPTKG
notes: source: synthetic peptide (Pepscan or Mimotopes)
B4: 1869_SpyT (peptide)
peptide: PPHPRPLPAPAQSRKKQKGRAGRGHEKTGASVLRGPQKPHPLPAQLRGASAHIVMVDAYKPTKG
notes: phylomer CPP 1869, discovered from phylomer peptide libraries; source: synthetic peptide (Pepscan or Mimotopes)
B5: 0084_SpyT (peptide)
peptide: RKQKSLQTKLAENPPVPRKKRQSRPRWKQWLQKGASAHIVMVDAYKPTKG
notes: phylomer CPP 0084, discovered from phylomer peptide libraries; source: synthetic peptide (Pepscan or Mimotopes)
B6: 0169_SpyT (peptide)
peptide: PLTQRTLQRGKKPKQRQNWKKARTSSAKTAPKTVVSRTTSQRKGASAHIVMVDAYKPTKG
notes: phylomer CPP 0169, discovered from phylomer peptide libraries; source: synthetic peptide (Pepscan or Mimotopes)
B7: TAT_SpyT (peptide)
peptide: GRKKRRQRRRGASAHIVMVDAYKPTKG
notes: canonical CPP TAT; source: synthetic peptide (Pepscan or Mimotopes)
B8: 1788_SpyT (peptide)
peptide: LFVDKATPQIYYTPSESVTVKSKGKNRRKKSGASAHIVMVDAYKPTKG
notes: phylomer CPP 1788, discovered from phylomer peptide libraries; source: synthetic peptide (Pepscan or Mimotopes)

Target: T1, SpyCatcher_β-lactamase protein ( | E. coli)
T1 construct: N-terminal leader as printed; TEM-1 β-lactamase of Escherichia coli without its signal peptide; C-terminal tail as printed; Printed mass 42.4 kDa; also called SpyC_β-lactamase; source: E. coli BL21 (DE3) Gold, purified (IMAC, SEC)
Assay: SpyTag/SpyCatcher covalent conjugation (isopeptide bond), analysed by SDS-PAGE; peptide:protein ratio 1.125:1 or 1.25:1, 50 µM SpyC_BLA; 50 mM HEPES, 200 mM NaCl, pH 7.0; 2 h at room temperature and/or overnight at 4 °C; conjugation efficiencies analysed on 4-12% NuPAGE Bis-Tris gels; conjugates then used for uptake into CHO-K1 and T47D cells
Conditions: both partners purified

Binder	binding result
B1	binds
B2	binds
B3	binds
B4	binds
B5	binds
B6	binds
B7	binds
B8	binds
